Reference: publication doi:10.1101/2020.10.14.337444

Key:
ENO1 wt = ENO1 wt (Homo sapiens, UniProt P06733 1-434); experiment: competition EMSA
ENO1down = ENO1down (Homo sapiens, UniProt P06733 1-434, K343A); experiment: competition EMSA
ENO1down, sequence (P06733 whole entry K343A): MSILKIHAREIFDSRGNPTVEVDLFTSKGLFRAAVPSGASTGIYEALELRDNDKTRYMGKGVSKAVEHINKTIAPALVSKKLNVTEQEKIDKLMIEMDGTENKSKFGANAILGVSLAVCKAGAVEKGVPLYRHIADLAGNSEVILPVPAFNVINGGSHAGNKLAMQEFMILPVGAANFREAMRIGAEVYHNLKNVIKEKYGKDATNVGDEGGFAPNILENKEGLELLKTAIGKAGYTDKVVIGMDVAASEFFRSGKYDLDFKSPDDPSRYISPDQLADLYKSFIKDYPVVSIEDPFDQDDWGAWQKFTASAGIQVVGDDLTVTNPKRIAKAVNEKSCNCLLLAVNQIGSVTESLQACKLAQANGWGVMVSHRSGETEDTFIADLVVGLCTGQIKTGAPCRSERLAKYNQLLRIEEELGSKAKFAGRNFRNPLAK

ENO1 wt, sequence (P06733 whole entry): as the sequence (P06733 whole entry K343A) above, with A343K counted along it

For GGCCCCCAGCCCCGGCACUCGCUCUCCUCCUCUCA (ssRNA) [PABPC1 control 35-mer], the Ki (ENO1 wt) was 2587 ± 9 nM and the Ki (ENO1down) was 3261 ± 12 nM.

In the case of CCUCUUUUAUAAAAUAACCCGGUGAAGCAGCCGAG (ssRNA) [PABPC1 target 35-mer], the Ki (ENO1 wt) is reported as 27 ± 19 nM and the Ki (ENO1down) is reported as 224 ± 12 nM.
